Laboratory results reported in patent US6838433B2, “IL-6 antagonist peptides” (Applied Research Systems ARS Holding N.V., priority 1998, dated 2005).

Molecular target: T1, gp130-ICD (Homo sapiens, UniProt P40189)
T1 construct: in order to isolate the intracellular portion of human gp130; expressed in transfected cells; host or cells: Saccharomyces cerevisiae strain CG-1945; cDNA obtained by RT-PCR from HepG2 cells and cloned into pGADGH (also pAS2-1)
T1 sequence (P40189 642-918 limits assumed): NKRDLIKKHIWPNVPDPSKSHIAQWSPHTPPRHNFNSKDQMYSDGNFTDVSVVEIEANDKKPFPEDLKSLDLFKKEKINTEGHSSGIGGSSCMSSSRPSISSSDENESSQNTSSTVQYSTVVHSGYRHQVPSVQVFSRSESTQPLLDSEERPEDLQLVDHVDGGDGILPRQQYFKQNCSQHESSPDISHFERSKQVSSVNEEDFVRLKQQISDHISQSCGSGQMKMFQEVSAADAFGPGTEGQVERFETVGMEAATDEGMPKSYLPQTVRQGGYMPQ
Assay: Liquid β-galactosidase (LacZ) assay in yeast two-hybrid system
Type: cell-based
Settings: combination of clone E and gp130-ICD in yeast cells; three independent experiments
Source text: We have also performed liquid β-galactosidase assays to quantify transcriptional activity: as shown in the FIG. 5, in the presence of gp130-ICD/GAL4AD the fusion protein clone E/GAL4BD was able to produce a transcriptional activity of lacZ gene about 2 to 3 fold higher than in the absence of gp130-ICD/GAL4AD, thus confirming the interaction detected after the first selection.
Liquid β-Galactosidase Assay
We prepared 5-ml overnight culture in liquid SD selection medium appropriate for plasmids.
We transferred 2 ml of the culture to 8 ml of YPD and incubate at 30° C. for 3-5 hours until the cells are in the mid-log phase (O.D.600=0.5-0.8).
The culture was centrifuged at 14,000 rpm for 30 seconds: in the next step, we remove the supernatants, wash the cells with a volume of Z-buffer and resuspend the pellet in 900 μl of Z buffer.
Immediately, two or more freeze/thaw cycles were performed, placing the tubes in liquid nitrogen and in a 37° C. water bath for 0.5-1 minute. […]
The reaction was stopped by adding 0.4 ml of 1 M Na2CO3: we recorded the time needed to obtain the results and O.D.420 of the samples.
β-galactosidase units were calculated by this formula: β-galactosidase units=1,000×O.D.420/(t×V×O.D.600) […]

β-galactosidase (LacZ) activity in liquid assay: about 3 units/ml
Substance: Clone E: peptide isolated by THS, homology group II, SEQ ID NO:6; homology with JAK1 JH4 domain (WGDNEWWRSEPHKMEL)
